According to IntAct's records for PubMed 11739743:

B1: Cell cycle protein kinase spo4 (Schizosaccharomyces pombe (strain ATCC 38366 / 972)), Q9UQY9 (parent)
chain: MLSMLLPFGNSGVYASDVDREDRPEIAKLVQAFPTIEEDYHVVKLVGAGSFSSVFKAVDRHFDSYDNSYWISSQIEDQMPHDKTKRPKNHFVALKRIYATVLPSRIQTELEMLHELRGSDCVLNMITAVRHQDQVLIVLPFIQHAEFRDFYMKYSLPEIGAYLRDLLKGLAHIDAKGIIHRDIKPGNFAWNPYTQRGVILDFGLAQWQEADAPTENCCVDKLRKLKQEGKYYDYFPFEKTIADPPEGYLLHDPRPTKRADRAGTRGFRAPEVLFRCQNQTSSIDVWSVGVILLCFLTHRYPFFRCEDDIDAIVELAHIFGRNGMSNCALLHGQIWSDNIPTLLDQKHNWLDLIASITKNDENLILETSSDYQVALAIDLLDKLLELHPSKRVKAKTALQHEFFNACGVTRSGFEAENPFRSDFPSTVEQ
partner: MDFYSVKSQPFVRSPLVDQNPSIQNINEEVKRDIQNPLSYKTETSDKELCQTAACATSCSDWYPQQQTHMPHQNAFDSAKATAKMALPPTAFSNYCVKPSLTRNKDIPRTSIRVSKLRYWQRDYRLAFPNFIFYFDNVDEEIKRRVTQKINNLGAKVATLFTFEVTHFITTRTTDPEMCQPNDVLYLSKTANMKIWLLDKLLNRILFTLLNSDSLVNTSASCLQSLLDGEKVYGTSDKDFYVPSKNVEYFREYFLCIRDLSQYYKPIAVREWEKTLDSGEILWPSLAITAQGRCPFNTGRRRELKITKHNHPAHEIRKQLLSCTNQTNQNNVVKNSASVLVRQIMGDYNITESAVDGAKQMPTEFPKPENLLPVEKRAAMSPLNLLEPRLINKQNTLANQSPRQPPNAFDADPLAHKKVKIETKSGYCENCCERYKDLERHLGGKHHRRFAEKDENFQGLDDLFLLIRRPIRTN

Variants of: B1
Conditions: with spo6_schpo spo6, Q9Y7J1

| Variant | effect of a mutation on the interaction |
| --- | --- |
| K95A | with no effect |
